For assay [1], the target named is T1, HuCD100 (cell surface) (human, UniProt Q92854). The assay can be described thus: FACS, HEK293.
Assay [2] has as its target T1, HuCD100 (cell surface). Kind of assay: FACS, Jurkat. On the technique in general: Flow cytometry measures light scatter and fluorescence of single cells or particles in a stream.
A further assay concerns the target T2, MusCD100 (cell surface) (mouse, UniProt O09126).
T2 chain: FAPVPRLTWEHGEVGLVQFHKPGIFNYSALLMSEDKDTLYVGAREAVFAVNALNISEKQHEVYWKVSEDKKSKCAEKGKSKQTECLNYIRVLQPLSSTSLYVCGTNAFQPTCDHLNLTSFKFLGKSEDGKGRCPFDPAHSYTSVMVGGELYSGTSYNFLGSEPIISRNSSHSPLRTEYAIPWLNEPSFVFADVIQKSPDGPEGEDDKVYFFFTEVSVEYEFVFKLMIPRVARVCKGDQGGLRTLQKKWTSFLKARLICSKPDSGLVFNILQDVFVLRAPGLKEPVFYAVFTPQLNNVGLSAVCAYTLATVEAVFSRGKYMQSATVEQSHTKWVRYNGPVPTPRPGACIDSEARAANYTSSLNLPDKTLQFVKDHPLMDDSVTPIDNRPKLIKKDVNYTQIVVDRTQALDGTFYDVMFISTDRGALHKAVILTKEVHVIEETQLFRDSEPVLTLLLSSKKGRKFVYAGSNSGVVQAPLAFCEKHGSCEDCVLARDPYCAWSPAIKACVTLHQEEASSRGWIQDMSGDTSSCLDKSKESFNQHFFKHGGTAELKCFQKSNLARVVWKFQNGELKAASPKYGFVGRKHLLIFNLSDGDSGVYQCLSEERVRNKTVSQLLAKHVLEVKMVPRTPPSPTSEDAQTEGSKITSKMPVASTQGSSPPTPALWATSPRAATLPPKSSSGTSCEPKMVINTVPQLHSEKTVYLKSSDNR
Kind of assay: FACS, HEK293.

A further assay deals with T3, MusCD100-His (mouse, UniProt O09126).
T3 chain: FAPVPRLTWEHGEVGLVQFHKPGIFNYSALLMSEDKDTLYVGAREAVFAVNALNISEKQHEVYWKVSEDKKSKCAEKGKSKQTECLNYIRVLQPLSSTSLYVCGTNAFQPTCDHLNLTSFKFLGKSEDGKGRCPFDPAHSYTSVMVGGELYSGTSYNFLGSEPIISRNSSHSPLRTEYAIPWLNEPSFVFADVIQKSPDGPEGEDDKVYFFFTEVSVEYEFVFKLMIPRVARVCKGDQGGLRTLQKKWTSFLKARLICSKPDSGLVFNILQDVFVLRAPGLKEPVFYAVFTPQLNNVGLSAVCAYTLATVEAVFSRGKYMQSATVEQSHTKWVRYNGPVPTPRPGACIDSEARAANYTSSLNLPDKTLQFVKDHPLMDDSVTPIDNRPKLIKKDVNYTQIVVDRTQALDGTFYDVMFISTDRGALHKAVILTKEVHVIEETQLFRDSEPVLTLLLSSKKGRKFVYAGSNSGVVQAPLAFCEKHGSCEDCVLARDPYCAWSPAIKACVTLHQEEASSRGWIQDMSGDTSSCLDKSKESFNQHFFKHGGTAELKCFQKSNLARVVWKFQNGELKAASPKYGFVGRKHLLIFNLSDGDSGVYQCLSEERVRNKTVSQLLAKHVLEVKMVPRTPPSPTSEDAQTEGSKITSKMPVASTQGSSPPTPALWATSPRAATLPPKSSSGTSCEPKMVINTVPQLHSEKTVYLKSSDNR
Kind of assay: ELISA. In general terms: ELISA stands for enzyme-linked immunosorbent assay.

In another assay the target is HuCD100-His (human, UniProt Q92854). Kind of assay: ELISA.
For assay [3], the target named is T1, HuCD100 (cell surface). The assay can be described thus: FACS, HuPBMC.

From patent US20260347464 (published 2026) come the findings set out here.

Chain of HuCD100-His (Q92854 22-734): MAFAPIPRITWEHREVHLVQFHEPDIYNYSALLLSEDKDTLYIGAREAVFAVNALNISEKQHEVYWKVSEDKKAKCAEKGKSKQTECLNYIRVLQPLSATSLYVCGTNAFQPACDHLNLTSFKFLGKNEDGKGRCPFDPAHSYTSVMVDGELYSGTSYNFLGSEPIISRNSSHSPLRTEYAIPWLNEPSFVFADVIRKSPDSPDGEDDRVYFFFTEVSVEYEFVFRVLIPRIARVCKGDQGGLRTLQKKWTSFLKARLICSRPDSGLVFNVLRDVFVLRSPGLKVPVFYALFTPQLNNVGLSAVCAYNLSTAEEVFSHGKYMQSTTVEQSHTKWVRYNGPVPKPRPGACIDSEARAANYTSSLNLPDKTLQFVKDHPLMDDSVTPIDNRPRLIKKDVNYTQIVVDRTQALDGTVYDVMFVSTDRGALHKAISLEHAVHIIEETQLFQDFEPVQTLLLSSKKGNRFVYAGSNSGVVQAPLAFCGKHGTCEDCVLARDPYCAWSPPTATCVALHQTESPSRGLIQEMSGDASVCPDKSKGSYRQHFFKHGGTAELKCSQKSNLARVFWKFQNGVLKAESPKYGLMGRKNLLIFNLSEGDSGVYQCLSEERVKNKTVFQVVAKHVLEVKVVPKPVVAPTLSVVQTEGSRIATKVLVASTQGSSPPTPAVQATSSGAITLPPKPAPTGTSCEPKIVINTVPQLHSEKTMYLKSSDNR
T1 sequence (Q92854 22-734): as above

B1: C-C081 (antibody, V domains shown)
VH: QVQLLESGGGLVKPGGSLRLSCAASGFTFSSYSMNWVRQAPGKGLEWVSSISSSSSYIYYADSVKGRFTISRDNAKNSLYLQMNSLRAEDTAVYYCARDHYPGPDAFDVWGQGTMVTVSS
VL: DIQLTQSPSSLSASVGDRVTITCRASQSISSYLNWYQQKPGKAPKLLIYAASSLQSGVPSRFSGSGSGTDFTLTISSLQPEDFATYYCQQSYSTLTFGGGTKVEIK
In general, EC50 refers to the midpoint of the concentration-response curve. A higher EC50 goes with weaker potency. With B1, the EC50 with HuCD100 (cell surface) [1] is 0.0927 µg/mL; in the assay with HuCD100 (cell surface) [2] it was 0.73 µg/mL; with MusCD100 (cell surface), 0.185 µg/mL; with MusCD100-His, 0.0541 µg/mL; in the assay with HuCD100-His, 0.0141 µg/mL; in the assay with HuCD100 (cell surface) [3], 0.0194 µg/mL.

B2: C-B71 (antibody, V domains shown)
VH: QVQLQESGPGLVKPSQTLSLTCTVSGGSISSGGYYWSWIRQHPGKGLEWIGYIYYSGSTYYNPSLKSRVTISVDTSKNQFSLKLSSVTAADTAVYYCAREGVAAAGIDYWGQGTPVTVSS
VL: NIQLTQSPSSVSASVGDRVTITCRASQGISSWLAWYQQKPGKAPKLLISTASSVQSGVPTRFSASGSGTDFTLTISSLQPEDFATYYCQQGYRTPWTFGQGTKVEIK
Turning to B2, the EC50 worked out at 0.0879 µg/mL in the assay with HuCD100 (cell surface) [1]; 0.108 µg/mL with HuCD100 (cell surface) [2]; 0.118 µg/mL in the assay with MusCD100 (cell surface); 0.00936 µg/mL with MusCD100-His; 0.0119 µg/mL with HuCD100-His; 0.177 µg/mL in the assay with HuCD100 (cell surface) [3].

B3: A14 (antibody, V domains shown)
VH: ETQLVESGGGLVQPGGSLRLSCAASGFPFSSYEMNWVRQAPGKGLEWVAEISSSGSTIYYADSVKGRFTISRDNAKKSLYLQMNSLRAEDTAVYYCARGRFEGYCSSTNCHTGAFDFWGQGTMVTVSS
VL: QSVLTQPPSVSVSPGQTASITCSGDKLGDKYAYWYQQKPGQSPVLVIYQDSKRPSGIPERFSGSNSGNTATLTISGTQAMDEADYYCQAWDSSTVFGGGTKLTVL
As to B3, the EC50 was 0.0277 µg/mL with HuCD100 (cell surface) [1]; 0.0195 µg/mL in the assay with HuCD100 (cell surface) [2]; 0.0599 µg/mL with MusCD100 (cell surface); 0.00792 µg/mL with MusCD100-His; 0.00613 µg/mL in the assay with HuCD100-His; 0.0145 µg/mL in the assay with HuCD100 (cell surface) [3].

B4: H5 (antibody, V domains shown)
VH: QLQLQESGPGLVKPPGTLSLTCAVSGGSISSSNWWSWVRQPPGKGLEWIGEIYHSGSTNYNPSLKSRVTISVDTSKNQFSLKLSSVTAADTAVYYCAVYDFWSGSGLDYWGQGTLVTVSS
VL: SYVLTQPPSVSVSPGQTASITCSGDKLGDKFASWYQQKPGQSPVLVIYQDRKRPSRIPERFSGSNSGNTATLTITGTQTIDEADYYCQAWDSGTVIFGGGTKLTVL
B4: the EC50 with HuCD100 (cell surface) [1] was determined as 0.0288 µg/mL; in the assay with HuCD100 (cell surface) [2] it was 0.0184 µg/mL; in the assay with MusCD100 (cell surface), 0.0606 µg/mL; with MusCD100-His it was 0.00722 µg/mL; with HuCD100-His it was 0.00639 µg/mL; with HuCD100 (cell surface) [3] it was 0.0132 µg/mL.

B5: H74 (antibody, V domains shown)
VH: QVQLQQWGAGLLKPSETLSLTCAVYGGSFSGYYWSWIRQPPGKGLEWIGEINHSGSTNYNPSLKSRVTISVDTSKNQFSLKLSSVTAADTAVYYCAGTRWLQFPLNYWGQGTLVTVSS
VL: SYVLTQPPSVSVSPGQTASITCSGDKLGDKYAYWYQQKPGQSPVLVLYQDAKRPSGIPERFSGSNSGNTATLTISGTQAMDEADYYCQAWDSSTAGYVFGTGTKVTVL
For B5, the EC50 with HuCD100 (cell surface) [1] turned out to be 0.0274 µg/mL; with HuCD100 (cell surface) [2] it was 0.0138 µg/mL; with MusCD100 (cell surface), 0.05 µg/mL; with MusCD100-His, 0.00478 µg/mL; in the assay with HuCD100-His, 0.00467 µg/mL; with HuCD100 (cell surface) [3] it was 0.00828 µg/mL.

B6: B13 (antibody, V domains shown)
VH: QVQLQQWGAGLLKPSETLSLTCAISSGSFSGYYWTWIRQPPGKGLEWIGETNHNGFTTYNTSLKSRITISIDASKNQFYLNLSSVTAADTATYFCARGPAYYADALDGFDIWGQGTMVTVSS
VL: QSVLTQPPSVSVSPGQTASITCSGDKLGDKYVSWYQQKPGQSPVLVIYQDNKRPSGIPERFSGSNSGNTATLTISGTQAMDEADYYCQAWDSSTKAYVFGAGTKVTVL
B6: the EC50 came out at 0.0346 µg/mL in the assay with HuCD100 (cell surface) [1]; 0.0185 µg/mL with HuCD100 (cell surface) [2]; 0.0697 µg/mL in the assay with MusCD100 (cell surface); 0.00842 µg/mL with MusCD100-His; 0.00733 µg/mL with HuCD100-His; 0.0109 µg/mL with HuCD100 (cell surface) [3].

B7: C-C171 (antibody, V domains shown)
VH: QVQLQESGPGLVKPSGTLSLSCTVSGGSMSSNYLWSWVRQTPGKGLQWIGDIFHSGRTYYNPSLKRRVTISVDKSKNQFSLKLSSVTAADTAVYYCARQGWTTPFDYWGQGTPVTVSS
VL: DIQLTQSPSSVSASVGDRVTITCRASQGISSWLAWYQQKPGKAPKLLIYAASSLQSGVPSRFSGSGSGTDFTLTISSLQPEDFATYYCLQDVYYPWTFGQGTTVEIK
On to B7, for which the half-maximal effective concentration (EC50) was 0.167 µg/mL with HuCD100 (cell surface) [1]; 0.449 µg/mL with HuCD100 (cell surface) [2]; 0.31 µg/mL with MusCD100 (cell surface); 0.031 µg/mL with MusCD100-His; 0.0107 µg/mL with HuCD100-His; 0.0859 µg/mL with HuCD100 (cell surface) [3].

B8: H96 (antibody, V domains shown)
VH: QVQLQQWGAGLLKPSETLSLTCAVYGGSFSGYYWSWIRQPPGKGLEWIGEINHSGSTNYNPSLKSRVTISVDTSKNQFSLKLSSVTAADTAVYYCARESNSYGYGTDYWGQGTLVTVSS
VL: QSALTQPPSVSVSPGQTATITCSGDKLGEKYAFWYQQKPGQSPVLVIYQDNKRPSGIPERFTGSNSGNTATLTIFGTQTMDEADYYCQAWDSSTYVFGTGTKVTVL
B8: the EC50 with HuCD100 (cell surface) [1] worked out at 0.0225 µg/mL; with HuCD100 (cell surface) [2], 0.0162 µg/mL; with MusCD100 (cell surface), 0.0504 µg/mL; with MusCD100-His, 0.0109 µg/mL; with HuCD100-His, 0.00968 µg/mL; with HuCD100 (cell surface) [3] it was 0.0104 µg/mL.

B9: H21 (antibody, V domains shown)
VH: EVQLVQSGGGLVQPGRSLRLSCAASGFTFDDYAMHWVRQAPGKGLEWVSGISWNSGSIGYADSVKGRFTISRDNAKNSLYLQMNSLRAEDTALYYCAKDIGGSYFDYYYYGMDVWGQGTLVTVSS
VL: EIVLTQSPATLSLSPGERATLSCRTSHNVNTYIAWYQQKPGQAPRLLFYDSSTRLPDTPARFSGSGSGTDFTLTISSLEPEDFAVYYCQQRTSWPLTFGGGTKVEIK
For the molecule B9, the EC50 in the assay with HuCD100 (cell surface) [1] amounted to 0.0374 µg/mL; in the assay with HuCD100 (cell surface) [2], 0.0258 µg/mL; with MusCD100 (cell surface), 0.0814 µg/mL; with MusCD100-His, 0.00686 µg/mL; with HuCD100-His, 0.00595 µg/mL; in the assay with HuCD100 (cell surface) [3], 0.0154 µg/mL.

B10: H12 (antibody, V domains shown)
VH: QVQLQESGPGLVKPSGTLSLTCAVSGGSISSSNWWSWVRQPPGKGLEWIGEIYHSGSTNYNPSLKSRVTISVDKSKNQFSLKLSSVTAADTAVYYCARFVSSGYLGAFDIWGQGTMVTVSS
VL: QSVLTQPPSVSVSPGQTASITCSGDRLGDKYSYWYQQKPGQSPVLVIYQDSKRPSGIPERFSGSNSGNTATLTISGTQAMDEADYYCQVWDSSTAVFGGGTKLTVL
Regarding B10, the EC50 came out at 0.0369 µg/mL with HuCD100 (cell surface) [1]; 0.028 µg/mL with HuCD100 (cell surface) [2]; 0.0758 µg/mL with MusCD100 (cell surface); 0.0112 µg/mL with MusCD100-His; 0.0113 µg/mL with HuCD100-His; 0.0177 µg/mL with HuCD100 (cell surface) [3].

B11: A15 (antibody, V domains shown)
VH: EVQLLESGGGLIQPGGSLRLSCAASGFTVSSNYMSWVRQAPGKGLEWVSVIYSGGSTYYADSVKGRFTISRDNSKNTLYLQMNSLRAEDTAVYYCAREVEGGMDVWGQGTTVTVSS
VL: SYVLTQPPSVSVSPGQTASIICSGDKLGDKYVYWYQQKSGQSPVLVIYQDRKRPSGIPERFSGSNSGNTASLAISGLQSEDEADYYCAAWDDSLNGWVFGGGTKLTVL
On to B11, for which the EC50 with HuCD100 (cell surface) [1] turned out to be 0.0269 µg/mL; in the assay with HuCD100 (cell surface) [2], 0.00851 µg/mL; in the assay with MusCD100 (cell surface), 0.0548 µg/mL; with MusCD100-His, 0.0101 µg/mL; with HuCD100-His, 0.0076 µg/mL; in the assay with HuCD100 (cell surface) [3] it was 0.00589 µg/mL.
